This note sets out measurements from patent US6905817B1, “Ret-independent signaling pathway for GDNF” (Licestia Ltd., priority 1998, dated 2005).

For test [1], the system named is wild type mouse DRG neurons. Briefly: GDNF-evoked [Ca^2+]i changes, confocal microscopy with Calcium Green-1AM, wild type DRG neurons. In kind it is cell-based. The settings on record: for change in [Ca^2+]i: 100 ng/ml, heat-inactivated at 98° C. for 15 min. As to the method: (§1) DRG from embryonic day 18 (E18) mice were treated with trypsin (Worthington), non-neuronal cells removed by preplating, and about 95% pure neurons cultured on poly-ornithine-laminin-coated glass coverslips in Ham's F14 medium (Imperial Laboratories) with serum substitute containing NGF, BDNF and NT-3 (all from PeproTech, 2 ng/ml if each) for at least 1 day before measurement. Neurotrophins were extensively washed out before GDNF application. GDNF was from PeproTech and donated by Cephalon, Inc. Ret-deficient mice (Schuchardt et al., 1994) were identified from heterozygote matings by the absence of kidneys and PCR-based genotyping. GFRα2-deficient mice were obtained from homozygote matings (Rossi et al., 1999).
(§2) [Ca^2+]i was measured using a Bio-Rad MRC-1024 confocal microscope equipped with an argon-krypton laser. The cells were loaded with 10 μM Calcium Green-1AM (Molecular Probes), a membrane permeable Ca^2+ dye, by 30 min incubation in serum free cell-culture media at 37 ° C. and 5 % CO2. After loading, the neurons were kept at room temperature in Dulbecco's PBS solution contained 20 mM HEPES (pH=7.4) for at least 20 min prior to the experiments. All compounds were applied to the bath by a peristaltic pump. 6 kD Heparin (Sigma) and Alexa 568 nm fluorescent dye (Molecular Probes) were loaded into the cells using Molecular Probes' pinocytotic influx loading reagent basically according to the manufacturer instructions. […] Cell injection was performed using Eppendorf microinjection system. The average intensity of fluorescence in the predefined ROI (Region Of Interest) was measured on-line using TimeCourse software from BioRad. The calibration of fluorescence traces was performed in vitro using Fmax and Fmin values obtained with the calcium calibration buffer kit (Molecular Probes). Because the calibration solutions may not reflect the intracellular environment, the experimental data are presented as delta [Ca^2+]i calculated using Kd=190 nM for Calcium Green-1.

Another test relates to Ret^−/− DRG neurons. Briefly: GDNF-evoked [Ca^2+]i changes, confocal microscopy, Ret^−/− DRG neurons. Format: cell-based, mouse. The settings on record: for GDNF-evoked [Ca^2+]i elevation in heparin injected neurons: 6kD heparin injected, versus solvent/saline injected control neurons. As to the method:
as §1, §2

The target in test [2] is T1, GFRα1 of the Ret-negative human SHEP neuroblastoma cell line (human) (UniProt P56159).
T1 sequence (GPI anchor, looked up): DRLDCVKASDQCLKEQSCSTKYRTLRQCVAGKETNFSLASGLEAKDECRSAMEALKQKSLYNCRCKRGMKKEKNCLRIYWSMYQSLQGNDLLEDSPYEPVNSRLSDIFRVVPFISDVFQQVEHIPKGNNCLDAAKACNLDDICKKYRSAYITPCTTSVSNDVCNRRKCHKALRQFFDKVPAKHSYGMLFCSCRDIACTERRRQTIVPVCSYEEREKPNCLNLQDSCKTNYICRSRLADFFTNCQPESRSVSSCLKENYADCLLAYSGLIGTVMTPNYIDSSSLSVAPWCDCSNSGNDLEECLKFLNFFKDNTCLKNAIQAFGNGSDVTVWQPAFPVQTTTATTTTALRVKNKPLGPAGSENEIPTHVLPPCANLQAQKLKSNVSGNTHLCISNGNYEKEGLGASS
Put plainly: anti-GFRα1 immunoprecipitate from the Triton X-100 insoluble fraction of SHEP cells, Western blot with pan-Src antibodies; lane 7 min of 100 ng/ml GDNF. On the technique in general: Immunoblotting shows a protein as a band on a membrane.

For test [3], the target named is T1, GFRα1 of the Ret-negative human SHEP neuroblastoma cell line (human). Put plainly: anti-GFRα1 immunoprecipitate from the Triton X-100 insoluble fraction of SHEP cells, Western blot with pan-Src antibodies; lane 30 sec of 100 ng/ml GDNF.
For test [4] the target is unchanged. Put plainly: anti-GFRα1 immunoprecipitate from the Triton X-100 insoluble fraction of SHEP cells, Western blot with pan-Src antibodies; lane 0 min GDNF (reference lane).
Test [5] shares this target. Briefly: anti-GFRα1 immunoprecipitate from the Triton X-100 insoluble fraction of SHEP cells, Western blot with pan-Src antibodies; lane 1 min of 100 ng/ml GDNF.
Another test concerns GFRα2^−/− DRG neurons. Put plainly: GDNF-evoked [Ca^2+]i changes, confocal microscopy, GFRα2^−/− DRG neurons. Format: cell-based, mouse. The settings on record: pre-treatment 10 μM U-73122. As to the method: as §1, §2
Transgenic GFRα2 knock-out mice were produced in our laboratory. […]

In test [6] the target is T1, GFRα1 of the Ret-negative human SHEP neuroblastoma cell line (human).
The target is the same in test [7]. Put plainly: cell-based or functional assay.
In test [8] the target is T2, GPI-anchored GDNF family receptor α1 (GFRα1) of mouse E18 DRG neurons (mouse) (UniProt P97785).
T2 sequence (GPI anchor, looked up): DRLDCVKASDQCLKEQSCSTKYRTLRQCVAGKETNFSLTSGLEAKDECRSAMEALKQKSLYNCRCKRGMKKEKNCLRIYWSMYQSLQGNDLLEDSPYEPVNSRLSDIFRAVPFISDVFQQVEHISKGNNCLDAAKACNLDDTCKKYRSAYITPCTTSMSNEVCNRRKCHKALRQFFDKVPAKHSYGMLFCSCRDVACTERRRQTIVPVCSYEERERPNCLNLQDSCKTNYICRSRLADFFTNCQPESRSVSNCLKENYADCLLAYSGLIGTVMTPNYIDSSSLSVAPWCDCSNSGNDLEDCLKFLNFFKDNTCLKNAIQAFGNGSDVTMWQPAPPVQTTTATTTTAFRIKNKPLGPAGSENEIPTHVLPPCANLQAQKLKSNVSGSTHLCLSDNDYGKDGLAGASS
Briefly: cell-based or functional assay.

“Also recorded” adds a separate entry of the source.

With `C/C=C(/C)C(=O)O[C@H]1C(C)=C2[C@H]([C@@H]1OC(=O)CCCCCCC)[C@@](C)(OC(C)=O)C[C@H](OC(=O)CCC)[C@@]1(O)[C@H]2OC(=O)[C@@]1(C)O` [thapsigargin], in test [1] (5 μM, applied at the end of the experiments), the “change in [Ca^2+]i on application of thapsigargin” value was “profound elevation in [Ca^2+]i”. Also, the “GDNF-evoked [Ca^2+]i elevation after pre-treatment” value in test [1] (pre-treatment 5 μM thapsigargin) is given as “abolished the effect of GDNF; also recorded: resulted in the abolishing of the effect of GDNF”. The “change in [Ca^2+]i on thapsigargin treatment” value with Ret^−/− DRG neurons (5 μM, end of experiments, PI-PLC pre-treated neurons) was “[Ca^2+]i was transiently increased”.

With “phosphatidylinositol-specific phospholipase C [PI-PLC]”, the “GDNF-evoked [Ca^2+]i elevation after pre-treatment” value is “eliminates GDNF-evoked [Ca^2+]i elevation; also recorded: None of the pre-treated neurons responded” in [1] (pre-treatment 1U/ml PI-PLC, GDNF 100 ng/ml) and “abolished the effect of GDNF; also recorded: did not affect [Ca^2+]i” with Ret^−/− DRG neurons (pre-treatment PI-PLC 1 U/ml for 1 hr at 37° C.).

Turning to “GFRα1-coupled Src-type kinase of SHEP cells, co-migrating with p62Yes (from UniProt P07947 2-543) (enzyme)”, the fold (pan-Src band in the anti-GFRα1 immunoprecipitate, relative to 0 min) in test [2] was found to be 1.2 fold; in [3], 1.5 fold; in [4], 1 fold; in test [5] it was 1.5 fold.

Consider `COc1ccc2c(c1)CC[C@@H]1[C@@H]2CC[C@]2(C)[C@@H](NCCCCCCN3C(=O)C=CC3=O)CC[C@@H]12` [U-73122], for which the “GDNF-evoked [Ca^2+]i elevation after pre-treatment” value in [1] (pre-treatment with U-73122) is “resulted in abolishing of the effect of GDNF; also recorded: resulted in the abolishing of the effect of GDNF”. In addition, the “GDNF-evoked long-lasting [Ca^2+]i elevation / Ca^2+ release after pre-treatment” value in the test on Ret^−/− DRG neurons (pre-treatment U-73122 (10 μM)) is given as “completely abolished; also recorded: inhibited release of Ca^2+ from the internal stores”. Also, the “GDNF-evoked release of Ca^2+ from internal stores after pre-treatment” value with GFRα2^−/− DRG neurons was “inhibited release of Ca^2+ from the internal stores”.

For heparin, the “GDNF-evoked [Ca^2+]i elevation in heparin injected neurons” value in the test with Ret^−/− DRG neurons is “did not evoke an increase in [Ca^2+]i”; in the test with Ret^−/− DRG neurons (listed as Heparin) it was “did not significantly respond to GDNF application”. Moreover, the “[Ca^2+]i response of neurons loaded by pinocytosis with heparin” value in the test with Ret^−/− DRG neurons (heparin with Alexa dye, 100 nM GDNF or 10 μM ATP) is “did not respond either to 100 nM GDNF or to 10 μM ATP”.

B1: Glial cell line-derived neurotrophic factor (GDNF) (ligand, UniProt P39905 78-211, looked up, species assumed)
Glial cell line-derived neurotrophic factor: SPDKQMAVLPRRERNRQAAAANPENSRGKGRRGQRGKNRGCVLTAIHLNVTDLGLGYETKEELIFRYCSGSCDAAETTYDKILKNLSRNRRLVSDKVGQACCRPIAFDDDLSFLDDNLVYHILRKHSAKRCGCI
As for B1, in test [6], the in vitro kinase activity co-precipitated with anti-GFRα1 antibodies from the Triton X-100 insoluble fraction of SHEP cells, fold relative to untreated cells; lane 0 min (reference lane) amounted to 1 fold; the in vitro kinase activity co-precipitated with anti-GFRα1 antibodies from the Triton X-100 insoluble fraction of SHEP cells, fold relative to untreated cells; lane 30 sec of 100 ng/ml GDNF worked out at 12 fold; the in vitro kinase activity co-precipitated with anti-GFRα1 antibodies from the Triton X-100 insoluble fraction of SHEP cells, fold relative to untreated cells; lane 1 min of 100 ng/ml GDNF was determined as 10 fold; the in vitro kinase activity co-precipitated with anti-GFRα1 antibodies from the Triton X-100 insoluble fraction of SHEP cells, fold relative to untreated cells; lane 7 min of 100 ng/ml GDNF came out at 7 fold. The molecule further returned a Src-type kinase activity in co-precipitates with anti-GFRα1 antibodies from Triton X-100 insoluble fractions of SHEP cells in test [7] of 12 fold. For the same molecule, in [8], the [Ca^2+]i elevation in Ret^-/- DRG neurons (confocal microscopy, Calcium Green-1) (% of the neurons) fell in the range of 60 to 70.

B2: Heat-inactivated GDNF: GDNF heat-inactivated at 98° C. for 15 min, used as specificity control (protein, UniProt P39905 78-211, looked up)
Glial cell line-derived …: SPDKQMAVLPRRERNRQAAAANPENSRGKGRRGQRGKNRGCVLTAIHLNVTDLGLGYETKEELIFRYCSGSCDAAETTYDKILKNLSRNRRLVSDKVGQACCRPIAFDDDLSFLDDNLVYHILRKHSAKRCGCI
modifications: heat-inactivated
As for B2, the “change in [Ca^2+]i” value is “did not evoke any changes of basal [Ca^2+]i” in [1]; “did not evoke changes in [Ca^2+]i” in [1] (heat-inactivated); “did not respond with [Ca^2+]i elevations” with Ret^−/− DRG neurons (prolonged application, heat-inactivated, 100 ng/ml).
